Results on 84 variants are retold here after the RNAGym collection of RNA variant scans (doi:10.1021/acssynbio.7b00057).

B1: Pistol ribozyme (parent)
chain: GGGUCGUUGUUCCAUAAUCGCGUGGAUAUGGCACGCAAGUUUCUACCGGGCACCGUAAAUGUCCGACUGGAGCCGUUCGGGCGGCUAUAAACAGACCUCAGGCCCGAAGCGUGGCGGCACCUGCCGCCGGUGGUAAAAAAGAUCGGAAGAGCACACGUCU

This series covers variants of B1. Briefly: aptazyme ON/OFF ratio, guanine; higher = stronger switching; co-transcriptional cleavage with and without guanine.
For the variant U7C U8C G9U U10G C12U C13U, the “aptazyme ON/OFF ratio” value stood at 1.21.

For U7A U8A G9C U10A U11C C12U C13U, the “aptazyme ON/OFF ratio” value turned out to be 1.11.

Turning to U8A G9A U11A C12A C13G, the “aptazyme ON/OFF ratio” value amounted to 1.25.

Regarding U7A U8G G9A U10G C13G, the “aptazyme ON/OFF ratio” value turned out to be 1.09.

As to U7G U8A G9C U10C U11A C12U C13A, the “aptazyme ON/OFF ratio” value turned out to be 1.02.

As to U8G G9U U10G U11C C13A, the “aptazyme ON/OFF ratio” value was 1.02.

Take U7C U8A U10C U11G C12A: the “aptazyme ON/OFF ratio” value came to 1.1.

Take U7G U8G G9U U10C C12A C13A: the “aptazyme ON/OFF ratio” value is 1.31.

For the variant U8C G9C U11G C12U C13A, the “aptazyme ON/OFF ratio” value turned out to be 1.09.

Regarding U7G U10G U11A C12G C13U, the “aptazyme ON/OFF ratio” value is 1.1.

Consider U7C G9A U10A U11A C12A C13G, for which the “aptazyme ON/OFF ratio” value turned out to be 1.23.

Turning to U7C U8G G9C U10A U11A C12U C13G, the “aptazyme ON/OFF ratio” value turned out to be 1.17.

As to U7C U8A U10C U11C C12A C13U, the “aptazyme ON/OFF ratio” value was determined as 1.27.

For U7A U8A G9A U10G U11G C12A, the “aptazyme ON/OFF ratio” value stood at 1.18.

Take U8G G9A U10C U11A C12G C13A: the “aptazyme ON/OFF ratio” value amounted to 1.16.

U8A U10G U11G C12G C13U: the “aptazyme ON/OFF ratio” value amounted to 1.32.

On to U7G U8A G9C U10C U11A C12U, for which the “aptazyme ON/OFF ratio” value is 1.07.

U7A U8G G9U U11A C13U: the “aptazyme ON/OFF ratio” value was 1.44.

Consider U7G U8G G9C U11C C12U C13G, for which the “aptazyme ON/OFF ratio” value turned out to be 1.37.

Turning to U7G U8C U10C U11G C12G C13A, the “aptazyme ON/OFF ratio” value stood at 1.13.

U7A U8A G9U U10C U11C C12A: the “aptazyme ON/OFF ratio” value came to 1.04.

Regarding U7A U8C G9C U10G U11C C12G C13U, the “aptazyme ON/OFF ratio” value is 1.12.

Regarding U7G G9A U10G C12G C13A, the “aptazyme ON/OFF ratio” value was determined as 1.1.

As to U7G U8G G9A U10G C12G C13A, the “aptazyme ON/OFF ratio” value turned out to be 1.11.

For the variant U8G G9C U10G U11G C12A, the “aptazyme ON/OFF ratio” value came to 1.21.

Turning to U8G G9C U11C C12G C13A, the “aptazyme ON/OFF ratio” value came to 1.03.

As to U7G U8A G9C U10A U11A C12U C13U, the “aptazyme ON/OFF ratio” value was found to be 1.05.

Consider U8C U10G U11G C12G C13A, for which the “aptazyme ON/OFF ratio” value stood at 1.16.

Take U8C U10G U11G C12G C13G: the “aptazyme ON/OFF ratio” value is 1.13.

As for U7A U8G G9U U10G U11A C12A, the “aptazyme ON/OFF ratio” value is 1.74.

For the variant U7A U8A G9U U10C C12A C13A, the “aptazyme ON/OFF ratio” value stood at 1.11.

As for U7C U8A G9C U10C U11G C12A C13A, the “aptazyme ON/OFF ratio” value amounted to 1.21.

Regarding U7G G9C U10A U11C C12A C13U, the “aptazyme ON/OFF ratio” value came to 1.36.

For U7C G9A U10A U11G C12A C13G, the “aptazyme ON/OFF ratio” value was 1.11.

As to U8C G9U U10G C12U C13A, the “aptazyme ON/OFF ratio” value stood at 1.28.

Turning to U7A G9C U10G, the “aptazyme ON/OFF ratio” value was determined as 1.32.

For U7G U8G U11C C12U C13U, the “aptazyme ON/OFF ratio” value came out at 1.44.

On to U7G G9U C13A, for which the “aptazyme ON/OFF ratio” value came out at 1.38.

Take U7A U8C G9U U10G U11C C12A C13U: the “aptazyme ON/OFF ratio” value was 1.26.

On to U7A U10A U11A C13A, for which the “aptazyme ON/OFF ratio” value came out at 1.19.

Consider U7G U8G G9A U10A U11G C12G C13U, for which the “aptazyme ON/OFF ratio” value amounted to 1.06.

Consider U7A U8A U11G C13G, for which the “aptazyme ON/OFF ratio” value is 1.1.

Regarding U7G G9C U10C U11C C12G C13G, the “aptazyme ON/OFF ratio” value was found to be 1.05.

As for U7C U8G G9C U11C C12A C13A, the “aptazyme ON/OFF ratio” value stood at 1.12.

U7C U10G C12U C13G: the “aptazyme ON/OFF ratio” value was 1.11.

Regarding U7A U8G U10C U11G C13G, the “aptazyme ON/OFF ratio” value was 1.07.

For the variant U8G U10A U11G C13U, the “aptazyme ON/OFF ratio” value worked out at 1.04.

On to U8A G9C U10C C12A C13A, for which the “aptazyme ON/OFF ratio” value was determined as 1.03.

Consider U8C G9C U10A U11G C12G, for which the “aptazyme ON/OFF ratio” value is 1.32.

With U7G G9A U11C C12U C13G, the “aptazyme ON/OFF ratio” value came to 1.19.

As to U7G U8A G9U U11C C12G C13G, the “aptazyme ON/OFF ratio” value worked out at 1.04.

For the variant U7G U8A G9U U10G U11A C12G C13A, the “aptazyme ON/OFF ratio” value was found to be 1.03.

For U7C U8G G9A U10G U11G C12U C13G, the “aptazyme ON/OFF ratio” value turned out to be 1.25.

U7C U8A G9U C12U C13A: the “aptazyme ON/OFF ratio” value was found to be 1.09.

In the case of U8A G9A U10G U11G C12G C13A, the “aptazyme ON/OFF ratio” value stood at 1.01.

Take U7C U8A G9U U10G C12U C13A: the “aptazyme ON/OFF ratio” value was 1.1.

With U8G G9C U10C U11G C12U, the “aptazyme ON/OFF ratio” value came to 1.25.

With U8C G9U U10C U11A C12A C13A, the “aptazyme ON/OFF ratio” value stood at 1.09.

On to U7C U8A U10G C12G C13U, for which the “aptazyme ON/OFF ratio” value turned out to be 1.41.

As to G9C C12A C13G, the “aptazyme ON/OFF ratio” value stood at 1.1.

As for U7C U8A G9A U10A C12A C13G, the “aptazyme ON/OFF ratio” value turned out to be 1.18.

U8G G9A U10C U11A: the “aptazyme ON/OFF ratio” value came out at 1.37.

With U7G U8C G9C U10C U11A C13A, the “aptazyme ON/OFF ratio” value turned out to be 1.04.

On to U7G G9C U10C U11G C12A, for which the “aptazyme ON/OFF ratio” value amounted to 1.14.

Regarding U7G U8A G9U C12U C13A, the “aptazyme ON/OFF ratio” value came out at 1.06.

Consider U7C G9C U10G U11G C12G C13G, for which the “aptazyme ON/OFF ratio” value is 1.11.

With U7A G9A U10C C12U C13A, the “aptazyme ON/OFF ratio” value was found to be 1.08.

For the variant U7C U8A G9U U10A U11A C12U C13U, the “aptazyme ON/OFF ratio” value came out at 1.36.

With U7G U8A U10A C12A C13A, the “aptazyme ON/OFF ratio” value turned out to be 1.33.

On to U8A G9A U11G C12G, for which the “aptazyme ON/OFF ratio” value amounted to 1.08.

For the variant U7A G9U U10A U11A C12A C13A, the “aptazyme ON/OFF ratio” value came to 1.1.

For U7G U8C G9A C12A, the “aptazyme ON/OFF ratio” value is 1.06.

Turning to U7A U8C G9C U10A U11C C12A, the “aptazyme ON/OFF ratio” value amounted to 1.1.

As for U7A U8C G9C U10A U11C C12U, the “aptazyme ON/OFF ratio” value turned out to be 1.13.

As to U7C U8C U11A C12G C13A, the “aptazyme ON/OFF ratio” value stood at 1.13.

U8A G9C U10C U11G C12G C13A: the “aptazyme ON/OFF ratio” value amounted to 1.14.

Turning to U7G U8A G9A U10G U11G, the “aptazyme ON/OFF ratio” value was found to be 1.07.

Take U7A U8G G9C U11C C12A: the “aptazyme ON/OFF ratio” value was determined as 2.15.

As for U7G U8C G9U U11A C12G C13A, the “aptazyme ON/OFF ratio” value came to 1.1.

U7G U8G U10C U11A C12U: the “aptazyme ON/OFF ratio” value was 1.36.

In the case of U8C G9U U10A U11G C12A C13A, the “aptazyme ON/OFF ratio” value amounted to 1.14.

Turning to U8A G9C U10G U11C C12A C13U, the “aptazyme ON/OFF ratio” value is 1.21.

For U7G U8C G9A C13G, the “aptazyme ON/OFF ratio” value turned out to be 1.03.

As to U7G U8C G9U U10A U11G C12A, the “aptazyme ON/OFF ratio” value amounted to 1.12.
